The results in this text go back to US20210032294A1, “MODIFIED PlySs2 LYSINS AND USES THEREOF” (CONTRAFECT CORPORATION, priority 2018, published 2021).

The subject of one series is MSSA isolates. The series is described as follows: MIC in CAMHB-HSD against MSSA isolates. The series is classed as cell-based, Staphylococcus aureus. The note with it: 51 MSSA isolates. Here is the method:
(§1) In vitro activity of the modified lysin polypeptide pp296 was assessed against a range of 51 MSSA and 51 MRSA isolates in cation-adjusted Mueller Hinton broth supplemented with 25% horse serum and 0.5 mM DTT (CAMHB-HSD) and compared to WT GMP grade PlySs2 (CF-301). CF-301 and pp296 were each diluted into CAMHB-HSD. For each lysin, the dilution series is set up such that, after a two-fold dilution of each well of the plate, the final concentrations contained: 64, 32, 16, 8, 4, 2, 1, 0.5, 0.25, and 0.125 μg/mL. Each lysin was tested in duplicate against each strain. Preparations were incubated overnight. Growth was visualized as a growth button approximately 2 mm in diameter. The highest dilution that yielded ≥80% growth inhibition was called the minimum inhibitory concentration (MIC). The activity of pp296 was very similar, within one 2-fold dilution, to that of CF-301, as shown below in Table 7.

Series [1] concerns 5 MRSA strains and 5 MSSA strains. The series is described as follows: Checkerboard synergy assay with daptomycin or vancomycin. The series is classed as cell-based, Staphylococcus aureus. Conditions: for FIC index: with vancomycin. The procedure:
Synergy studies with antibiotics suitable for treatment of Gram-positive bacteria, for example, daptomycin (DAP) and vancomycin (VAN), were performed using a checkerboard assay. Fractional inhibitory concentration (FIC) index values were determined for modified lysin polypeptide pp296 and antibiotic combinations against 5 methicillin-sensitive Staphylococcus aureus (MSSA) and 5 methicillin resistant Staphylococcus aureus (MRSA) isolates. An FIC index value of ≤0.5 may be interpreted as strong synergy between the two agents, while a value between 0.5 and 1 may still be considered a synergistic effect. Given that pp296 has four amino acid replacements in the catalytic domain, the ability of pp296 to synergize with antibiotics was unexpected. […] Qualitatively similar results may be anticipated upon performing similar assays using other de-immunized active variants, such as pp55, pp61, pp65, pp400, and pp619, in accordance with the present disclosure.
In another experiment, the ability of modified lysin polypeptide pp296 to synergize with daptomycin and vancomycin was assessed using a checkerboard analysis. FIC (fractional inhibitory concentration) index values were determined for pp296 and antibiotic combinations against 5 MSSA and 5 MRSA isolates. A total of 50 μl of Mueller-Hinton broth (BBL) was distributed into each well of microdilution plates. The first antibiotic of the combination was serially diluted along the ordinate, while the second drug was diluted along the abscissa. An inoculum equal to a 0.5 McFarland turbidity standard was prepared from each S. aureus isolate in MHB. Each microtiter well was inoculated with 100 μl of a bacterial inoculum of 5×10^5 CFU/ml, and the plates were incubated at 37° C. for 18 h under aerobic conditions. The resulting checkerboard contained each combination of two antibiotics, with wells that contained the highest concentration of each antibiotic at opposite corners. […] To quantify the interactions between the antibiotics being tested, the FIC index (the combination of antibiotics that produced the greatest change from the individual antibiotic's MIC) value was calculated for each strain and antibiotic combination as follows:
(A/MICA)+(B/MICB)=FICA+FICB=FIC index,
Checkerboards were generated using combinations of pp296 with either daptomycin or vancomycin against 5 MRSA strains (MW2, JMI-5675, JMI-4408, JMI-6181, and JMI-6182) and 5 MSSA strains (ATCC 29213, JMI-40979, JMI-43257, JMI-41293, and JMI-49315). Synergy was defined as inhibitory activity greater than what would be predicted by adding the two components together.

The nature of series [2]: Toxicity screening in mice. The note with it: 30 mg/kg. The series is classed as in vivo. The procedure: Selected modified lysin polypeptides from Table 3 were subjected to further testing as described in more detail in subsequent Examples. […] The same 30 mg/kg dose of PlySs2 caused a 100% incidence of adventitial findings, which is an indication of potential toxicity.

Series [3] deals with 5 MRSA strains and 5 MSSA strains. The series is described as follows: Checkerboard synergy assay with daptomycin or vancomycin. The series is classed as cell-based, Staphylococcus aureus. The note with it: MRSA (JMI-41293) strain.
For the next series, the system named is MRSA isolates. The series is described as follows: MIC in CAMHB-HSD against MRSA isolates. The series is classed as cell-based, Staphylococcus aureus. Conditions: 51 MRSA isolates. The procedure:
as §1

In series [4] the test system is S. aureus isolate CFS-860. The series is described as follows: Mouse neutropenic thigh infection (MNTI) model. The series is classed as in vivo, Staphylococcus aureus. The procedure:
The efficacy of four modified lysin polypeptides was compared to wild-type PlySs2 in a dose response (0-60 mg/kg) assay using a mouse neutropenic thigh infection (MNTI) model.
Bacterial inoculum was generated by allowing bacterial cells to grow to exponential phase in MHB until they reached an optical density (OD) of about 0.5 at 600 nm. The bacterial cells were thoroughly washed, resuspended in 0.9% sodium chloride USP, and diluted to an equivalent of 3.9×10^8 colony forming units (CFU)/mL. Cells were further diluted as described below in 0.9% sodium chloride USP and maintained on wet ice.
Neutropenia was induced in female BALB/cByJ mice (5-7 weeks, Jackson Laboratories) by intraperitoneal (ip) administration of 150 mg/kg and 100 mg/kg of cyclophosphamide 4 and 1 days prior to inoculation of bacteria, respectively. Bacterial inoculum (S. aureus isolate CFS-860, 100 μl of 10^7 CFU/ml solution) was injected intramuscularly (IM) into both posterior thighs of each mouse. […] At 2 hours post-inoculation (Early Control) and 24 hours post-treatment initiation, animals were euthanized (CO2 asphyxiation), and the thighs were aseptically removed. Each thigh was weighed, placed into 4 ml sterile saline and homogenized in 7 ml lysing tubes using a Precellys24 high-throughput tissue homogenizer (Bertin Corp, Rockville, Md.). Dilutions of homogenate were plated on tryptic soy blood agar plates (Becton Dickinson) and incubated at 37° C. overnight in a CO2 incubator. Bacterial burden was enumerated and expressed as log 10 CFU/g of thigh weight and compared to control animals harvested at 2 hours post infection (Early Control) and animals treated with vehicle (Late Control).
The data representing mouse thigh bacterial burden are depicted in FIG. 2. The upper dot on the y-axis is vehicle alone, and the lower dot on the y-axis is the Early Control. pp1149 is in fact also a wild-type lysin over-expressed and purified in the laboratory along with the other modified lysin polypeptides and used as an additional positive control.

“Also recorded” adds a separate entry of the source.

B1: pp296: Modified PlySs2 lysin, SEQ ID NO: 6: L92W, V104S, V128T, Y137S, Y164K, N184D, S198Q (protein)
chain: MTTVNEALNNVRAQVGSGVSVGNGECYALASWYERMISPDATVGLGAGVGWVSGAIGDTISAKNIGSSYNWQANGWTVSTSGPFKAGQIVTWGATPGNPYGHVSIVEAVDGDRLTILEQNYGGKRYPTRNYYSAASSRQQVVHYITPPGTVAQSAPNLAGSRSKRETGTMTVTVDALNVRRAPDTSGEIVAVYKRGEQFDYDTAIIDVNGYAWVSYIGGSGKRNYVATGATKDGKRFGNAWGTFK
Regarding B1, the MIC50 in the series on MSSA isolates and in the series with MRSA isolates was 1 µg/mL each time. The MIC90 against MSSA isolates and against MRSA isolates was 1 µg/mL throughout. Moreover, the “MIC Range” value with MSSA isolates is 0.5 to 2 µg/mL; against MRSA isolates it was 0.25 to 2 µg/mL. For the same molecule, the FIC index values in series [1] (with both daptomycin and vancomycin, predominantly) is on record as ~0.5. The FIC index stood at 0.375 in series [1] (MRSA JMI-6182); 0.625 in series [1] (MSSA ATCC 29213); 0.375 in series [1] (MSSA strain JMI-40979); 0.5 in series [1] (against 6 of the 10 strains examined); 0.75 in series [3]. For the same molecule, the “Adventitial findings (lesions)” value in series [2] was “no adventitial findings; also recorded: did not result in adventitial lesions”. Moreover, the “Performance in MNTI at lower doses” value in series [4] (0.5 mg/kg) is on record as “performed comparably to wild type”. In addition, the “Bactericidal efficacy (thigh bacterial burden) versus wild type” value in series [4] (neutropenic BALB/cByJ mice, intravenous, dose response, 24 hours) was “activity comparable to wild-type PlySs2 lysin”. Also, the “Bactericidal efficacy at the lowest dose used” value in series [4] (neutropenic mice, intravenous, 5 mg/kg) is “comparable to that of wild-type PlySs2 lysin”.
